The values below come from PMC547899.

The target in the experiment is SMC3-474/702 hinge domain (GAL4:SMC3 fusion in pBIND) (UniProt Q9CW03). The experiment can be described thus: two-hybrid; mammalian two-hybrid (Promega Checkmate) in 293 cells: SMC3-474/702 in pBIND, SMC1-474/663 in pACT, pG5/luc reporter, with Hinderin-V5 expression vector (0.3 or 1 ug/ml) or empty pcDNA3.1; luciferase after 48 h, corrected by Renilla.
Chain of UniProt Q9CW03 (Q9CW03 474-702): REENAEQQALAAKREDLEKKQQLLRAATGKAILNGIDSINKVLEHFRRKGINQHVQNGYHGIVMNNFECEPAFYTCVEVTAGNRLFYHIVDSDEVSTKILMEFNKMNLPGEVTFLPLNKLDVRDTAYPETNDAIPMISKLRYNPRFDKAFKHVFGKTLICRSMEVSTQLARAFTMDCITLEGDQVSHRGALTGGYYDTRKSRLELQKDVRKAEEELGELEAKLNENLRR

On to “Hinderin-V5 (complete Hinderin coding region with V5 tag) (from UniProt Q86T90 1-577) (natural protein)”, for which the SMC1/SMC3 interaction (luciferase activity) in cells overexpressing Hinderin, percent was 34%.
